Results reported in IntAct's records for PubMed 18550832.

Molecular target: stk39_mouse Stk39 (UniProt Q9Z1W9)

effect of a mutation on the interaction: disrupting interaction
Substance: Serine/threonine-protein kinase WNK3 (Homo sapiens), Q9BYP7-2 F1337A
